Data from patent US20150166647A1 (VLST, published 2015).

How the values were obtained:
Assay in all cases: MSD electrochemiluminescence assay; chemokine coated at 1 µg/mL, 7D12A at 3 µg/mL; background = BSA
Fractalkine = target: T1, Fractalkine
T1 construct: also called Fractalkine/CX3CL1; CX3CL1
T1 chemokine: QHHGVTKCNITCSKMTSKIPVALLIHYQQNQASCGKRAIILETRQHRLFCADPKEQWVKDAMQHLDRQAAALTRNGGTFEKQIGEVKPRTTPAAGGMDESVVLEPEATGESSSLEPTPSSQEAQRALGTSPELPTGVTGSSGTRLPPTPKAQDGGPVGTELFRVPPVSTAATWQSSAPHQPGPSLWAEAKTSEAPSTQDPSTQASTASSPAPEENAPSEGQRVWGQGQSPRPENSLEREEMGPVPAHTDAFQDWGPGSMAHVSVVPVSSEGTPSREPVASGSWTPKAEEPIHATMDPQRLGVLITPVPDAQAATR

HCC-4 = target: T2, HCC-4
T2 construct: also called HCC-4/CCL16; CCL16
T2 chemokine: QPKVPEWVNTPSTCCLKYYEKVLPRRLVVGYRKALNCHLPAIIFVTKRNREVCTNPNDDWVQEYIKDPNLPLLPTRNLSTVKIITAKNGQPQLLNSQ

MCP-2 = target: T3, MCP-2
T3 construct: also called MCP-2/CCL8; CCL8
T3 chemokine: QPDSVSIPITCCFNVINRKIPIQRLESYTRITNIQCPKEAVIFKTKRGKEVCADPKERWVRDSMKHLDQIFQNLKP

MCP-3 = target: T4, MCP-3
T4 construct: also called MCP-3/CCL7; CCL7

MCP-4 = target: T5, MCP-4
T5 construct: also called MCP-4/CCL13; CCL13

Eotaxin = target: T6, Eotaxin
T6 construct: also called Eotaxin/CCL11; CCL11

ELC = target: T7, ELC
T7 construct: also called ELC/MIP-3β/CCL19; CCL19
T7 chemokine: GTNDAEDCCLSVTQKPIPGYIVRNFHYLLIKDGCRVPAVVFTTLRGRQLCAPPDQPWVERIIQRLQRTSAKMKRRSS

human MPIF-1/CCL23 = target: T8, human MPIF-1/CCL23 (human, UniProt P55773 46-120)
T8 sequence: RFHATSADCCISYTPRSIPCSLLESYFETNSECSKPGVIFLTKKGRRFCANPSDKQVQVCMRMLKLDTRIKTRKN

human HCC-1/CCL14/CCL14a = target: T9, human HCC-1/CCL14/CCL14a (human, UniProt Q16627 28-93)
T9 sequence: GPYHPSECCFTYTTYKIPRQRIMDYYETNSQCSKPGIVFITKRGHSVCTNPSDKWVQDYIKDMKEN

human PARC/CCL18 = target: T10, human PARC/CCL18 (human, UniProt P55774 21-89)
T10 sequence: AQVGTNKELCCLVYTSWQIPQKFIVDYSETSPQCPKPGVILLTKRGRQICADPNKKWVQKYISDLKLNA

human MCP-1/CCL2 = target: T11, human MCP-1/CCL2 (human, UniProt P13500 24-99)
T11 construct: also called Biotin-MCP1
T11 sequence (P13500 24-99 limits assumed): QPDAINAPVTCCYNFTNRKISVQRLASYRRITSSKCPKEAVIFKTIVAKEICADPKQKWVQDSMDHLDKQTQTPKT

T6 sequence (chemokine, as listed by the source): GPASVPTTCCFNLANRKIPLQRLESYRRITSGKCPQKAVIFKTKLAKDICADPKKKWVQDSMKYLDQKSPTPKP
T4 sequence (chemokine, as listed by the source): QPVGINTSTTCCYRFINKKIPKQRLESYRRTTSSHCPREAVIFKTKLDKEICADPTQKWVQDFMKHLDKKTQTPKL
T5 sequence (chemokine, as listed by the source): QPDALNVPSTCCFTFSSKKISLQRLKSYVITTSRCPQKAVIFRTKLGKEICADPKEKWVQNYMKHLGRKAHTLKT

- binding result (Fractalkine): no binding (tested: 3 µg/mL)
- binding result (HCC-4): no binding (tested: 3 µg/mL)
- binding result (MCP-2): no binding (tested: 3 µg/mL)
- binding result (MCP-3): no binding (tested: 3 µg/mL)
- binding result (MCP-4): no binding (tested: 3 µg/mL)
- binding result (Eotaxin): no binding (tested: 3 µg/mL)
- binding result (ELC): no binding (tested: 3 µg/mL)
- binding result (human MPIF-1/CCL23): binds
- binding result (human HCC-1/CCL14/CCL14a): no binding (tested: 3 µg/mL)
- binding result (human PARC/CCL18): no binding (tested: 3 µg/mL)
- binding result (human MCP-1/CCL2): no binding (tested: 3 µg/mL)
B1: monoclonal antibody 7D12A (antibody, V domains shown)
VH: EVHLQESGPSLVKPSQTLSLTCSVTGDSITNGYWNWIRKFPGNKLDYMGYISYDGNTYYNPSLKSRFSITRDTSKNQYYLQLNSVTTEDTATYYCSRGDYGTYVMDYWGQGTSVTVSS
VL: NIVLTQSPVSLAVSLGQRATISCRASESVDSHGNSFMHWYQQKPGQPPKLLIYLASNLESGVPARFTGGGSGSDFTLTIDPVEADDVGTYYCQQNNEDPYTFGGGTKLEIK
notes: also called MAb 7D12A
